Source: patent US20030148460

Legend:
[1] = test system: cathepsin D
[2] = test system: RNAse B
[3] = target: uteroferrin (UniProt P09889)
UniProt P09889, sequence (P09889 22-340): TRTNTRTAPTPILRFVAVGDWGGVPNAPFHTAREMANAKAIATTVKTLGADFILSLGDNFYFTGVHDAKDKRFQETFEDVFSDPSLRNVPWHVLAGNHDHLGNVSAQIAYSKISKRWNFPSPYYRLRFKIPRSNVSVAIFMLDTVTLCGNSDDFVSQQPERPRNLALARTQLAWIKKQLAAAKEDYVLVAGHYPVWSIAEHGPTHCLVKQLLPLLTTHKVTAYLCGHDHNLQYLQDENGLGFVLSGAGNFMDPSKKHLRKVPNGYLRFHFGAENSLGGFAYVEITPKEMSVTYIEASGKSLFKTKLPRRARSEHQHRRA

bovine GlcNAc-phosphotransferase (UDP-N-acetylglucosamine: lysosomal enzyme N-Acetylglucosamine-1-phosphotransferase)
Km as acceptor for transfer of GlcNAc-1-P [1]: Both uteroferrin and cathepsin D are effectively utilized as acceptors by purified GlcNAc-phosphotransferase with Kms below 20 µM | Km as acceptor for transfer of GlcNAc-1-P [2]: the Km was not reached at the solubility limit of the protein (at 600 µM) | Km as acceptor for transfer of GlcNAc-1-P [3]: Both uteroferrin and cathepsin D are effectively utilized as acceptors by purified GlcNAc-phosphotransferase with Kms below 20 µM
